B1: pGAD-GL-ΔC2 (CARP; 1-147 amino acids) (other)
chain: MADLSFIEDAVAFPEKEEDEEEEEEEGVEWGYEEGVEWGLVFPDANGEYQSPINLNSREARYDPSLLDVRLSPNYVVCRDCEVTNDGHTIQVILKSKSVLSGGPLPGGQEFELYEVRFHWGRENQRGSEHTVNFKAFPMELHLIHWN
notes: Yeast two-hybrid truncation construct; not shown: fusion partner encoded by vector pGAD-GL
B2: pGAD-GL-ΔC3 (CARP; 1-170 amino acids) (other)
chain: MADLSFIEDAVAFPEKEEDEEEEEEEGVEWGYEEGVEWGLVFPDANGEYQSPINLNSREARYDPSLLDVRLSPNYVVCRDCEVTNDGHTIQVILKSKSVLSGGPLPGGQEFELYEVRFHWGRENQRGSEHTVNFKAFPMELHLIHWNSTLFGSIDEAVGKPHGIAIIALF
notes: as for B1
B3: pGAD-GL-ΔC8 (CARP; 121-291 amino acids) (other)
chain: GRENQRGSEHTVNFKAFPMELHLIHWNSTLFGSIDEAVGKPHGIAIIALFVQIGKEHVGLKAVTEILQDIQYKGKSKTIPCFNPNTLLPDPLLRDYWVYEGSLTIPPCSEGVTWILFRYPLTISQMQIEEFRRLRTHVKGVELVEGCDGILGDNFRPTQPLSDRVIRAAFQ
notes: as for B1
B4: pGAD-GL-ΔC1 (CARP; 1-127 amino acids) (other)
chain: MADLSFIEDAVAFPEKEEDEEEEEEEGVEWGYEEGVEWGLVFPDANGEYQSPINLNSREARYDPSLLDVRLSPNYVVCRDCEVTNDGHTIQVILKSKSVLSGGPLPGGQEFELYEVRFHWGRENQRG
notes: as for B1
B5: pGAD-GL-ΔC6 (CARP; 1-234 amino acids) (other)
chain: MADLSFIEDAVAFPEKEEDEEEEEEEGVEWGYEEGVEWGLVFPDANGEYQSPINLNSREARYDPSLLDVRLSPNYVVCRDCEVTNDGHTIQVILKSKSVLSGGPLPGGQEFELYEVRFHWGRENQRGSEHTVNFKAFPMELHLIHWNSTLFGSIDEAVGKPHGIAIIALFVQIGKEHVGLKAVTEILQDIQYKGKSKTIPCFNPNTLLPDPLLRDYWVYEGSLTIPPCSEGVTW
notes: as for B1
B6: pGAD-GL-ΔC4 (CARP; 1-180 amino acids) (other)
chain: MADLSFIEDAVAFPEKEEDEEEEEEEGVEWGYEEGVEWGLVFPDANGEYQSPINLNSREARYDPSLLDVRLSPNYVVCRDCEVTNDGHTIQVILKSKSVLSGGPLPGGQEFELYEVRFHWGRENQRGSEHTVNFKAFPMELHLIHWNSTLFGSIDEAVGKPHGIAIIALFVQIGKEHVGL
notes: as for B1
B7: pGAD-GL-ΔC5 (CARP; 1-217 amino acids) (other)
chain: MADLSFIEDAVAFPEKEEDEEEEEEEGVEWGYEEGVEWGLVFPDANGEYQSPINLNSREARYDPSLLDVRLSPNYVVCRDCEVTNDGHTIQVILKSKSVLSGGPLPGGQEFELYEVRFHWGRENQRGSEHTVNFKAFPMELHLIHWNSTLFGSIDEAVGKPHGIAIIALFVQIGKEHVGLKAVTEILQDIQYKGKSKTIPCFNPNTLLPDPLLRDYW
notes: as for B1
B8: pGAD-GL-ΔC9 (CARP; 184-291 amino acids) (other)
chain: TEILQDIQYKGKSKTIPCFNPNTLLPDPLLRDYWVYEGSLTIPPCSEGVTWILFRYPLTISQMQIEEFRRLRTHVKGVELVEGCDGILGDNFRPTQPLSDRVIRAAFQ
notes: as for B1
B9: CARP of the cytosolic fraction of mouse cerebellum (other)
chain: MADLSFIEDAVAFPEKEEDEEEEEEEGVEWGYEEGVEWGLVFPDANGEYQSPINLNSREARYDPSLLDVRLSPNYVVCRDCEVTNDGHTIQVILKSKSVLSGGPLPGGQEFELYEVRFHWGRENQRGSEHTVNFKAFPMELHLIHWNSTLFGSIDEAVGKPHGIAIIALFVQIGKEHVGLKAVTEILQDIQYKGKSKTIPCFNPNTLLPDPLLRDYWVYEGSLTIPPCSEGVTWILFRYPLTISQMQIEEFRRLRTHVKGVELVEGCDGILGDNFRPTQPLSDRVIRAAFQ
notes: Endogenous protein in a tissue fraction, detected by Western blotting with anti-CARP polyclonal antibody; also called endogenous CARP
B10: carbonic anhydrase-related protein (CARP), full-length, yeast two-hybrid prey in pGAD-GL (other)
chain: B9 chain
notes: 13 positive clones from a mouse brain cDNA library; they contain different lengths of 5'UTR of CARP cDNA followed by a full-length coding region in frame; also called mouse CARP; not shown: fusion partner encoded by the library vector pGAD-GL (and in-frame 5'UTR of differing length); not described in the fili

Each binder was assayed against T1, MD2 bait construct (mIP3R1: 1387-1647 amino acids) in pGBT9 (mouse, UniProt P11881 1387-1647) (assay: yeast two-hybrid beta-gal assay).
T1 construct: also called IP3R1 modulatory domain bait 2; not shown: fusion partner encoded by the bait vector pGBT9 and primer-encoded linker
Method: To determine the respective interaction domains of CARP and IP_3R1, truncated mutants of both genes were prepared and analyzed using yeast two-hybrid system. […] Interactions between CARP mutants and MD2, CARP and IP_3R1 mutants were analyzed by β-gal assay by the yeast two-hybrid system. The prepared mutant and results of β-gal assay in the yeast two-hybrid system (n=3) are shown in FIG. 5. β-gal assay was evaluated by the time of blue colony appearance, i.e., blue colony appears within 30 min (+++), 2 h (++) and 8 hr (+).
Yeast two-hybrid assay in the following examples was conducted using MATCHJMAKER™ Two-Hybrid system according to the manufacturer's protocol (Clontech Laboratories Inc., Palo Alto, Calif., USA).

T1 sequence (P11881 1387-1647): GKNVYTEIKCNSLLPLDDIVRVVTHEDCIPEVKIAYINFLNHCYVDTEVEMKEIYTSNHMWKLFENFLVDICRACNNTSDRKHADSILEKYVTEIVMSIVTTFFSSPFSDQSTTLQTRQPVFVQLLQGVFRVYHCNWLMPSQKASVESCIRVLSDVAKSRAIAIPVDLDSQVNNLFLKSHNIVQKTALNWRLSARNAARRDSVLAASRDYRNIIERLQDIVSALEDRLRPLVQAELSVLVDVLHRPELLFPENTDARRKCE

Row | binding result | Binder
1 | no binding | B1
2 | no binding | B2
3 | no binding | B3
4 | no binding | B4
5 | no binding | B5
6 | no binding | B6
7 | no binding | B7
8 | no binding | B8

Each binder was assayed against T2, GST (UniProt P08515 1-218 = GST, limits assumed) (assay: GST pull-down from mouse cerebellar cytosolic fraction, Western blot with anti-CARP antibody).
T2 construct: Control for the GST fusion proteins; its source is not described; also called GST alone; glutathione S-transferase
From the text: Next, the inventors of the present application examined the interaction between CARP and IP_3R1 by means of a pull-down method in order to obtain further evidence for the interaction by biochemical methods. The inventors first developed expression system in Sf9 cells, and made IP_3R1 soluble by removing the channel domain. The soluble IP_3R1, designated GST-EL, covers both the ligand binding domain and modulatory domain (amino acids 1-2217 Of mIP_3R1) and has GST in its N terminus. Mouse cerebellar cytosolic fraction was incubated with GST-EL or GST, and binding of CARP to the recombinant proteins was analyzed by immunoblotting with anti-CARP antibody. The results are shown in photographs of FIG. 4 which are substituted for drawings.
Adult mouse cerebella were homogenized in 10 mM HEPES (pH 7.4), 320 mM Sucrose, 2 mM EDTA, 1 mM 2-mercaptoethanol, and protease inhibitors and the homogenate was centrifuged at 1,000× g for 10 min. The supernatant was centrifuged at 100,000× g for 60 min to obtain the cytosolic fraction (the supernatant) and the crude microsome (the pellet). The cytosolic fraction was added with 100 mM NaCl, and incubated with 20 μg of GST-EL or GST for 2 hours at 4° C. […] The eluted proteins were analyzed by Western blotting with anti-CARP antibody.

T2 sequence (P08515 whole entry, the tested form may be a part): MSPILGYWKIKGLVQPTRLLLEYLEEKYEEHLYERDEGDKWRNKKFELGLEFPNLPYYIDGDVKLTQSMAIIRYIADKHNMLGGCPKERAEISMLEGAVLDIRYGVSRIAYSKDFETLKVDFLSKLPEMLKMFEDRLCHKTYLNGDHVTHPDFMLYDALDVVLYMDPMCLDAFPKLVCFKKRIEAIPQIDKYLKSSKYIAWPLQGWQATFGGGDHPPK

Row | binding result | Binder
9 | no binding (tested: 20 µg of GST) | B9

These binders were tested against T1, MD2 bait construct (mIP3R1: 1387-1647 …) (assay: yeast two-hybrid screen of a mouse brain cDNA library with MD2 as bait).

Row | binding result | Binder
10 | binds | B10

Source: patent US7276582 (JAPAN SCIENCE AND TECHNOLOGY AGENCY, dated 2007)
